# Values quoted from earlier work in US20010039026A1, “Assay method” (priority 2000, published 2001).
# Experiments:
# CCCKR5 = molecular target: T1, CCCKR5 (Homo sapiens, UniProt P51681); settings: transfected CHO-K1 cells
# T1 construct: expressed in transfected cells; host or cells: CHO-K1 (stably transfected)
# [1] = tested on: primary, nonsyncytium-inducing (NSI) HIV-1 strains; settings: primary NSI HIV-1 strains
# [2] = tested on: env-mediated cell-cell fusion
# T1 sequence (P51681 whole entry): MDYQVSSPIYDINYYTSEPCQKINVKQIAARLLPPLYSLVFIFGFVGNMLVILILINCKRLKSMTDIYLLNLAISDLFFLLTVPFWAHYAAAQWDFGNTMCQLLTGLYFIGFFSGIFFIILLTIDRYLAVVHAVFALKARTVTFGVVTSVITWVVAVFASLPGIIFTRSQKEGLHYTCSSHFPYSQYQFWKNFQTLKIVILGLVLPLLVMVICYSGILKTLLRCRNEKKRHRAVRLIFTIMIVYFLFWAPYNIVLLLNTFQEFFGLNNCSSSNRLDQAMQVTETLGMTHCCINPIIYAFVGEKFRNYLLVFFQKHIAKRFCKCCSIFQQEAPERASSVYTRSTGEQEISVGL
molecule,measurement,setting,value
"MIP-1-β: macrophage inflammatory protein, β-chemokine ligand of CCR5 (protein, UniProt P13236 24-92, looked up) C-C motif chemokine 4: APMGSDPPTACCFSYTARKLPRNFVVDYYETSSLCSQPAVVFQTKRSKQVCADPSESWVQEYVYDLELN",agonist activity at CCCKR5,CCCKR5,active at physiologic concentrations
same,inhibition of infection of CD4(+) cells at the virus entry stage,[1],inhibit infection
same,block of env-mediated cell-cell fusion,[2],block env-mediated cell-cell fusion
